In the assay the target is Lon protease of E. coli (endogenous) (E. coli) (UniProt P0A9M0). The experiment in a line: cell-based or functional assay.
Chain of UniProt P0A9M0 (P0A9M0 2-784 limits assumed): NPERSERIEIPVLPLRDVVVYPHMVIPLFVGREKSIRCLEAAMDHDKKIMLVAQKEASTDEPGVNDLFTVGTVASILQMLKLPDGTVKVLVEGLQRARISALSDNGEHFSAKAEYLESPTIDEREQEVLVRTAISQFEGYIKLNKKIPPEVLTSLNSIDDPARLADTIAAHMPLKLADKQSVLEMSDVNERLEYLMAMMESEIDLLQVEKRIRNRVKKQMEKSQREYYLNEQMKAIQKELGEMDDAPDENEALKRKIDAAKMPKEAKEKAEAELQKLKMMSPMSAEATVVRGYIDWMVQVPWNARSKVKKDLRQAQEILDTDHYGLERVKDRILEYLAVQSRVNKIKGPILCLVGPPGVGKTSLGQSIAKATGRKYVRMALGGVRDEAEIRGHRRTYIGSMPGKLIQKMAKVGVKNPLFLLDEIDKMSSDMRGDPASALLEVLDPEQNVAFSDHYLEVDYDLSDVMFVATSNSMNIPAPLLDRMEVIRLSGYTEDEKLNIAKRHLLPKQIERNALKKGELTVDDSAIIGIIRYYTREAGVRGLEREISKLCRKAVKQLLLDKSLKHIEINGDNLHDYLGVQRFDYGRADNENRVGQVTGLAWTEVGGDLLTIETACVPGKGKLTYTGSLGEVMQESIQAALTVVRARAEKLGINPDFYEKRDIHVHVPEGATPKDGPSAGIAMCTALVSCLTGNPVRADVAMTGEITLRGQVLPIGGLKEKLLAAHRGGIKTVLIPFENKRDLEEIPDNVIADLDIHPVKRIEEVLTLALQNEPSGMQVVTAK

On to “T7 phage gene product (Gp) 4.5 expressed in E. coli from a plasmid (peptide)”, for which the fold decrease in persistence: fraction of surviving E. coli cells following 5 hr exposure to ampicillin came to 5 fold.

Values taken from US20140178353A1.
